Kd data for 1 substance are collected here from article PMC2188490.

What all share (assay): kinetic titration of prothrombinase activity
Assay [1] has as its target factor V/Va (mixture of nonactivated and activated factor V) purified from rabbit plasma (rabbit).
For assay [2] the target is unchanged. This is another data set of the same source.
Assay [3] addresses high-affinity factor Xa receptor on cultured rabbit alveolar macrophages (rabbit (endogenous in alveolar macrophages)).

pKd: −log10 of the molar value. Like-named read-outs stand apart in the source and are kept apart here.

One may read the pKd as the negative decadic logarithm of the Kd, by convention in mol/L. Consider factor Xa (enzyme), for which the figures for the pKd in assay [1], in assay [2] and in assay [3] were 9.09, 9.22 and 9.68, respectively.
